In patent US20230340106A1 (published 2023):
Numbering of substitutions follows the chain as printed.

B1: F4.7.8 (antibody, V domains shown)
VH: not shown
VL: AIQLTQSPSSLSASVGDRVTITCQASQDIFNLLNWYRQKPGKAPDLLVYRASNLETGVPSRFSGSGSGTDFTFTISSLQPEDVGTYYCQQSANLPLTFGGGTKVEIK
notes: Only the variable domains are tied to the clone
B2: recombinant IL-2Rα (receptor, UniProt P01589 22-213, looked up)
chain: ELCDDDPPEIPHATFKAMAYKEGTMLNCECKRGFRRIKSGSLYMLCTGNSSHSSWDNQCQCTSSATRNTTKQVTPQPEEQKERKTTEMQSPMQPVDQASLPGHCREPPPWENEATERIYHFVVGQMVYYQCVQGYRALHRGPAESVCKMTHGKTRWTQPQLICTGEMETSQFPGEEKPQASPEGRPESETSC
modifications: biotin labeled
notes: also called IL-2α; CD25
B3: 16C3 (antibody, V domains shown)
VH: QVQLVQSGGGVVQPGRSLRLSCAASGFTFSNYAMNWVRQAPGKGLEWVTLISYDGSQKYYADSVKGRFTTSRDNSKNTLYLQMNSLRAEDTAVYYCARDSTTLGAFDVWGQGTMVTVSS
VL: SYELTQPPSLSVSPGQTATISCSGDAFPRKFAYWYQQKSGQAPVLVIYEDTRRPSGIPERFSGSSSGTMATLTISGAQVEDEADYFCYSTDTTGTHRVFGGGTKLTVL
B4: F5.1.11 (antibody, V domains shown)
VH: QLQLQESGPGLVKPSQTLSLTCTVSGGSISSGGYYWSWIRQHPGKGLEWIGYIYYSGSTYYNPSLKSRVTISVDTSKNQFSLKLSSVTAADTAVYYCARTPTVTGDWFDPWGRGTLVTVSS
VL: NFMLTQPHSVSESPGKTVTISCTRSSGSIASNYVQWYQQRPGSSPTTVIYEDNQRPSGVPDRFSGSIDSSSNSASLTISGLKTEDEADYYCQSYDSSNVVFGGGTKLTVL
B5: F4.7.062 (antibody, V domains shown)
VH: B4 VH with L2V, R113Q
VL: B4 VL
B6: F5.1.11.04 (antibody, V domains shown)
VH: B4 VH with T59N, Y61W
VL: B4 VL with S96T, S97R, N98D
B7: F5.1.11.08 (antibody, V domains shown)
VH: B4 VH with Y55K, T59N, Y61W
VL: B4 VL with S93T, S97I, N98D, V100Y
B8: F4.7.6 (antibody, V domains shown)
VH: B4 VH with Q1E, L2V, R113Q
VL: B4 VL with N98T
B9: F5.1.9.5 (antibody, V domains shown)
VH: EVQLVESGPGLVKPSETLSLTCAVSGYSISSGYYWGWIRQPPGKGLEWIGLSYHTRSTYYDPSLKSRVTISVDTSKNQFSLKLSSVTAADTAVYYCAREAYSDRAFDIWGQGTMVTVSS
VL: B4 VL with V18I, N32D, T46S, E51A, G58E, K82M, S97N, N98I, V100I
B10: F5.1.11.02 (antibody, V domains shown)
VH: B4 VH with Y55K, T59A, N62S
VL: B4 VL with S93T, S97I, N98D, V100Y
notes: also called F5111.2; 5.1.11.2
B11: recombinant IL-2Rβ (receptor, UniProt P14784 27-239, looked up)
chain: AVNGTSQFTCFYNSRANISCVWSQDGALQDTSCQVHAWPDRRRWNQTCELLPVSQASWACNLILGAPDSQKLTTVDIVTLRVLCREGVRWRVMAIQDFKPFENLRLMAPISLQVVHVETHRCNISWEISQASHYFERHLEFEARTLSPGHTWEEAPLLTLKQKQEWICLETLTPDTQYEFQVRVKPLQGEFTTWSPWSQPLAFRTKPAALGKD
modifications: biotin labeled
notes: also called CD122; IL2Rb
B12: d1C7 (antibody, V domains shown)
VH: QVQLVQSGAEVKKPGSSVKVSCKASGGTFSSYAISWVRQAPGQGLEWMGGIIPIFGTANYAQKFQGRVTITADESTSTAYMELSSLRSEDTAVYYCARVDRYYNWNYFLGSFDYWGQGTLVTVSS
VL: SYVLTQPPSVSVAPGKTARITCGGNNIRSKSVHWYQQKPGQAPVVVIYYDSDRPSGIPERISGSNSGNTATLTISRVEAGDEADYFCQVWDSSSDHHVFGGGTKLTVL
notes: Only the variable domains are tied to the clone; also called clone d1C7

Tests used:
[1] = target: T1, human IL-2 (recombinant IL-2, Humanzyme) (human, UniProt P60568 21-153); assay: SPR (Biacore T200), IgG captured by anti-human IgG, IL-2 injected, 25 C, 1:1 Langmuir fit
T1 construct: It may include the signal peptide; also called hIL-2; interleukin-2
T1 sequence (P60568 21-153 limits assumed): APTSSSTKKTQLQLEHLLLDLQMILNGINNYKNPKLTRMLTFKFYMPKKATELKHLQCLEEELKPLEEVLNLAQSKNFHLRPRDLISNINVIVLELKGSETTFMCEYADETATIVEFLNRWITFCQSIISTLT
Procedure: (§1) Experiments were performed at 25° C. using a 30 μL/minute flow rate in 0.01 M HEPES pH 7.4, 0.15 M NaCl and 0.005% v/v surfactant P20 (HBS-P) buffer. After each cycle, the chip surface was regenerated with 3 M MgCl₂ and new antibody captured. […] Data were analyzed using the Biacore T200 Evaluation software, the signal from the adjacent control flow cell with only the capture antibody immobilized was background subtracted along with buffer only injections for each antibody. A 1:1 Langmuir binding model was used to fit all binding curves.

[2] = target: T1, human IL-2 (recombinant IL-2, Humanzyme); assay: SPR as in Example 1 (value as in Table 3)
Procedure: as §1

[3] = target: T2, recombinant cynomolgus monkey (Macaca fascicularis) IL-2 (cynomolgus monkey (Macaca fascicularis), UniProt Q29615 21-154); assay: SPR, IgG captured, cyno IL-2 1-100 nM; 1:1 Langmuir fit or steady-state affinity
T2 construct: also called cyno IL-2; cynomolgus monkey IL-2
T2 sequence (Q29615 21-154 limits assumed): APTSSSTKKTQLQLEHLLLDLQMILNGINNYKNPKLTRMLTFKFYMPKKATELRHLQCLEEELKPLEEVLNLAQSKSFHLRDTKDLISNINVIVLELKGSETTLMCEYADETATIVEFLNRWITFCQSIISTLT
Procedure: as §1
(§2) A 1:1 Langmuir binding model was used to fit binding curves or the steady-state affinity constant calculated from a concentration-response curve.

IL-2/F5.1.11 Fab complex = IL-2/F5.1.11 Fab complex (human, UniProt P60568 21-153); assay: SPR (Biacore T200), equilibrium analysis, 1-500 nM IL-2 pre-complexed with excess Fab over biotinylated IL-2Rα
Sequence of IL-2/F5.1.11 Fab complex (P60568 21-153 limits assumed, one chain of several): as the sequence (P60568 21-153 limits assumed) above
Procedure: Experiments were performed at 25° C. using a 10 μL/minute flow rate in 10 mM HEPES (pH7.4), 150 mM NaCl and 0.005% v/v Surfactant P20 buffer. […] Data was background subtracted using the adjacent control flow cell and buffer only injections. The affinity of the interaction was calculated from concentration-response relationship at equilibrium.

[4] = target: T2, recombinant cynomolgus monkey (Macaca …); assay: SPR, IgG captured, cyno IL-2 1-100 nM; concentration-response insufficient to calculate the affinity
Procedure: as §1, §2

[5] = target: T1, human IL-2 (recombinant IL-2, Humanzyme); assay: SPR as in Example 1 (IgG captured, IL-2 injected)
Procedure: as §1

[6] = target: T1, human IL-2 (recombinant IL-2, Humanzyme); assay: method not stated in the sentence (presumably SPR as in Example 1)
[7] = target: T1, human IL-2 (recombinant IL-2, Humanzyme); assay: SPR as in Example 1; reference is parental F5.1.11
Procedure: as §1

[8] = target: T1, human IL-2 (recombinant IL-2, Humanzyme); assay: SPR as in Example 1 (value as in Table 4)
Procedure: as §1

d1C7/IL-2 complex = target: T3, d1C7/IL-2 complex (human, UniProt P60568 21-153); assay: SPR (Biacore T200), complex injected over biotinylated receptor on a streptavidin chip
T3 construct: also called clone d1C7/IL-2 complex
T3 sequence (P60568 21-153 limits assumed, one chain of several): as the sequence (P60568 21-153 limits assumed) above
Procedure: Experiments were performed at 25° C. using a 10 μL/minute flow rate in 10 mM HEPES (pH 7.4), 150 mM NaCl and 0.005% v/v Surfactant P20 buffer. […] Data was background subtracted using the adjacent control flow cell and buffer only injections.

| Binder | Kd [1] [nM] | koff [1] [s⁻¹] | kon [1] [M⁻¹ s⁻¹] | Kd [2] [nM] | Kd [3] [nM] | Kd [5] [nM] | koff [5] [s⁻¹] | kon [5] [M⁻¹ s⁻¹] | other results |
| --- | --- | --- | --- | --- | --- | --- | --- | --- | --- |
| B1 | 13.4 | 0.0031 | 231000 | 13.4 | 92.4 | – | – | – | – |
| B2 | – | – | – | – | – | – | – | – | Kd (IL-2/F5.1.11 Fab complex): 70.1 nM |
| B3 | 0.637 | 0.000619 | 989000 | 0.637 | 0.516 | – | – | – | – |
| B4 | 3.12 | 0.00688 | 2.21e+06 | 3.12 | – | 1.88 | 0.00711 | 3.78e+06 | binding result [4]: binds |
| B5 | 1.54 | 0.0058 | 3.77e+06 | – | – | – | – | – | – |
| B6 | – | – | – | – | – | 0.624 | 0.000458 | 734000 | – |
| B7 | – | – | – | – | – | 0.205 | 0.000453 | 2.21e+06 | – |
| B8 | 3.03 | 0.00738 | 2.44e+06 | – | – | – | – | – | – |
| B9 | – | – | – | – | – | – | – | – | Kd [6]: 0.663 nM; koff [6]: 0.000818 s⁻¹; kon [6]: 1.23e+06 M⁻¹ s⁻¹ |
| B10 | – | – | – | – | ~211 | 0.114 | 0.000574 | 5.05e+06 | fold increase of apparent binding affinity over parental F5.1.11 [7]: 16 fold; Kd [8]: 0.114 nM |
| B11 | – | – | – | – | – | – | – | – | binding result (d1C7/IL-2 complex): no binding |
| B12 | 0.536 | 0.000607 | 1.13e+06 | 0.536 | ≥ 108 | – | – | – | – |
